The values below are quoted from earlier work in paper PMC8168288.

pKd: −log10 of the molar value.

The data set deals with BCOR peptide (Homo sapiens) (UniProt Q6W2J9). As to the kind of experiment: SPR.
Sequence of BCOR peptide (Homo sapiens) (Q6W2J9 whole entry): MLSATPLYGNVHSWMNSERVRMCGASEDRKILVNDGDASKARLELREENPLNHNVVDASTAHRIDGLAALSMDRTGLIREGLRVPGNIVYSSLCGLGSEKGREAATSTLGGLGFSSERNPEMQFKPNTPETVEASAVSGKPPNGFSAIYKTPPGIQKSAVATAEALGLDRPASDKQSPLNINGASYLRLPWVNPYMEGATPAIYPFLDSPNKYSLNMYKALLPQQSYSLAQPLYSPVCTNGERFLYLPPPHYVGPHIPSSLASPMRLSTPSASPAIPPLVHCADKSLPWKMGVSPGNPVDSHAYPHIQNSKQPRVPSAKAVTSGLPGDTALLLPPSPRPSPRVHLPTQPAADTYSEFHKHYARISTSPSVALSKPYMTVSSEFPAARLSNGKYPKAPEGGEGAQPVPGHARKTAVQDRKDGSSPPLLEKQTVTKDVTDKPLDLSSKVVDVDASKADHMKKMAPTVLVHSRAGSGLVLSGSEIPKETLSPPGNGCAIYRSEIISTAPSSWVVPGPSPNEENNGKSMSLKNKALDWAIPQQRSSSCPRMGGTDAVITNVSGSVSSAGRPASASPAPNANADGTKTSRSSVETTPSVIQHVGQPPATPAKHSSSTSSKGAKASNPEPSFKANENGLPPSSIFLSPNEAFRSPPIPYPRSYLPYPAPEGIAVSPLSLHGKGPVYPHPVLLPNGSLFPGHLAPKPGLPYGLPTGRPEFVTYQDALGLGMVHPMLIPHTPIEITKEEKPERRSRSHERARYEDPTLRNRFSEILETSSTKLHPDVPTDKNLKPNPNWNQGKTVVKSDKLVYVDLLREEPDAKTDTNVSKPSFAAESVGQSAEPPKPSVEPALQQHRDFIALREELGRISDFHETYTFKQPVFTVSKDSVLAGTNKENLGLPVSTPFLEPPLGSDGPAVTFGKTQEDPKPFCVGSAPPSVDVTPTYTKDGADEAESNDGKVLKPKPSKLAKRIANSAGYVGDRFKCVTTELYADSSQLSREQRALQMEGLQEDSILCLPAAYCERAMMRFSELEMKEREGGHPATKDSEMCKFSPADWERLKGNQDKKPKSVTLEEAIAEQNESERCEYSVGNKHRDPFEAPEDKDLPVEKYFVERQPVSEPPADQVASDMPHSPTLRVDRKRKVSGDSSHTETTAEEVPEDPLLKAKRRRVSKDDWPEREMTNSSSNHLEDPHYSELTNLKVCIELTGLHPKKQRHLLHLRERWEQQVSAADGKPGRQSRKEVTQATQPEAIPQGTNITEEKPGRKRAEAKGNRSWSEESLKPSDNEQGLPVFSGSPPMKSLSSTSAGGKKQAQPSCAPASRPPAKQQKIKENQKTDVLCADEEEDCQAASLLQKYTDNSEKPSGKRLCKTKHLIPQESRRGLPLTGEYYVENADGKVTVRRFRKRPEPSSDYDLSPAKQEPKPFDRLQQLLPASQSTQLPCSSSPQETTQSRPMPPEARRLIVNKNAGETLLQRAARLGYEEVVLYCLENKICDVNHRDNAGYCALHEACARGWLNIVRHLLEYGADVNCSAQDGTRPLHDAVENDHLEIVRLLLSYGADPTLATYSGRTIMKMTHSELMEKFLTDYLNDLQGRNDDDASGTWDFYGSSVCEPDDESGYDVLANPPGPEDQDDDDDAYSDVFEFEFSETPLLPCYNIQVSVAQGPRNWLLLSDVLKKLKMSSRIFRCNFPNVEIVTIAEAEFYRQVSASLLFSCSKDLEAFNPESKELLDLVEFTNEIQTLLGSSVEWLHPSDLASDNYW

For the substance BCL6 BTB (from UniProt P41182), the pKd (as a rule, −log10 of the Kd, conventionally taken in molar units) was 5.22.
